Source: patent US20090280138A1 (OXFORD BIOMEDICA UK, published 2009)

Columns and labels:
Assay in all cases: iTopia peptide binding assay
[1] = target: T1, MHC class I allele A*0101 (bound via biotin to streptavidin-coated plate)
T1 construct: iTopia MHC class I monomer on the plate; placeholder peptide and b2M removed, then reconstituted with test peptide and fresh b2M; also called A1; HLA A1
Protocol: (§1) The 9 mers were tested for Peptide Binding, Off Rate and Affinity using iTopia Epitope Discovery System in accordance with the manufacturer's instructions. Briefly, 96 well microtitre plates coated with MHC molecules representing different MHC alleles are used to identify candidate peptides. […] Determinations are performed in duplicate using an ELISA plate reader and included allele specific positive controls.
(§2) i) Peptide Binding—This assay measures the ability of individual peptides to bind to the MHC molecules under standardized optimal binding conditions. The assay is performed for all the test peptides across the selected MHC alleles. The test peptides identified as “binders” are characterized further in terms of affinity and dissociation experiments.

[2] = target: T2, MHC class I allele A*0201 (bound via biotin to streptavidin-coated plate)
T2 construct: iTopia MHC class I monomer on the plate; placeholder peptide and b2M removed, then reconstituted with test peptide and fresh b2M; also called A2; HLA A2
Protocol: as §1, §2

[3] = target: T3, MHC class I allele A*0301 (bound via biotin to streptavidin-coated plate)
T3 construct: iTopia MHC class I monomer on the plate; placeholder peptide and b2M removed, then reconstituted with test peptide and fresh b2M; also called A3; HLA A3
Protocol: as §1, §2

[4] = target: T4, MHC class I allele B*0702 (bound via biotin to streptavidin-coated plate)
T4 construct: iTopia MHC class I monomer on the plate; placeholder peptide and b2M removed, then reconstituted with test peptide and fresh b2M; also called B7; HLA B7
Protocol: as §1, §2

| Binder | % of positive control peptide binding [1] | % of positive control peptide binding [2] | % of positive control peptide binding [3] | % of positive control peptide binding [4] |
| --- | --- | --- | --- | --- |
| LPSLRQLDL (also called Peptide No 71) [5T4 9 mer peptide 71 LPSLRQLDL] | 0% | 27% | 0% | 82% |
| LPSLRHLDL (also called Peptide No 117) [5T4 9 mer peptide 117 LPSLRHLDL] | 0% | 16% | 1% | 96% |
| LNLSGSRLD (also called Peptide No 62) [5T4 9 mer peptide 62 LNLSGSRLD] | 2% | 7% | 2% | 7% |
| GAFARRPPL (also called Peptide No 55) [5T4 9 mer peptide 55 GAFARRPPL] | 0% | 41% | 3% | 91% |
| LPAYVRNLF (also called Peptide No 45) [5T4 9 mer peptide 45 LPAYVRNLF] | 7% | 14% | 2% | 90% |
| LAELAALNL (also called Peptide No 59) [5T4 9 mer peptide 59 LAELAALNL] | 15% | 63% | 3% | 16% |
| FLTGNQLAV (also called Peptide No 49) [5T4 9 mer peptide 49 FLTGNQLAV] | 4% | 90% | 3% | 6% |
| TEVPTDLPA (also called Peptide No 42) [5T4 9 mer peptide 42 TEVPTDLPA] | 3% | 7% | 0% | 0% |
| LCECSEAAR (also called Peptide No 33) [5T4 9 mer peptide 33 LCECSEAAR] | 3% | 6% | 0% | 0% |
| PALCECSEA (also called Peptide No 32) [5T4 9 mer peptide 32 PALCECSEA] | 4% | 19% | 0% | 0% |
| AGAFEHLPS (also called Peptide No 68) [5T4 9 mer peptide 68 AGAFEHLPS] | 6% | 10% | 3% | 7% |
| VKCVNRNLT (also called Peptide No 38) [5T4 9 mer peptide 38 VKCVNRNLT] | 6% | 3% | 0% | 2% |
| QCPALCECS (also called Peptide No 31) [5T4 9 mer peptide 31 QCPALCECS] | 3% | 2% | 0% | 0% |
| PAGAFARRP (also called Peptide No 54) [5T4 9 mer peptide 54 PAGAFARRP] | 2% | 4% | 3% | 7% |
| RRPPLAELA (also called Peptide No 57) [5T4 9 mer peptide 57 RRPPLAELA] | 2% | 11% | 2% | 9% |
| AFEHLPSLR (also called Peptide No 69) [5T4 9 mer peptide 69 AFEHLPSLR] | 1% | 11% | 11% | 0% |
| RTVKCVNRN (also called Peptide No 37) [5T4 9 mer peptide 37 RTVKCVNRN] | 7% | 12% | 12% | 3% |
| SEAARTVKC (also called Peptide No 35) [5T4 9 mer peptide 35 SEAARTVKC] | 5% | 1% | 0% | 0% |
| VRNLFLTGN (also called Peptide No 47) [5T4 9 mer peptide 47 VRNLFLTGN] | 0% | 5% | 0% | 3% |
| AALNLSGSR (also called Peptide No 61) [5T4 9 mer peptide 61 AALNLSGSR] | 3% | 6% | 13% | 3% |
| NRNLTEVPT (also called Peptide No 40) [5T4 9 mer peptide 40 NRNLTEVPT] | 1% | 6% | 0% | 5% |
| VPTDLPAYV (also called Peptide No 43) [5T4 9 mer peptide 43 VPTDLPAYV] | 33% | 29% | 0% | 11% |
| PPLAELAAL (also called Peptide No 58) [5T4 9 mer peptide 58 PPLAELAAL] | 6% | 19% | 4% | 33% |
| CSRGPAAGD (also called Peptide No 3) [5T4 9 mer peptide 3 CSRGPAAGD] | 0% | 3% | 5% | 3% |
| ECSEAARTV (also called Peptide No 34) [5T4 9 mer peptide 34 ECSEAARTV] | 2% | 4% | 0% | 0% |
| RLDEVRAGA (also called Peptide No 65) [5T4 9 mer peptide 65 RLDEVRAGA] | 4% | 69% | 17% | 32% |
| DEVRAGAFE (also called Peptide No 66) [5T4 9 mer peptide 66 DEVRAGAFE] | 6% | 9% | 7% | 12% |
| PAAGDGRLR (also called Peptide No 5) [5T4 9 mer peptide 5 PAAGDGRLR] | 4% | 5% | 4% | 5% |
| TDLPAYVRN (also called Peptide No 44) [5T4 9 mer peptide 44 TDLPAYVRN] | 7% | 3% | 1% | 2% |
